From patent US20100233189A1

Target: human TSHR with mutation K209E expressed in CHO cells (human) (UniProt P16473)
Assay: cell-based or functional assay

UniProt P16473, sequence (P16473 22-764 K209E/E727D): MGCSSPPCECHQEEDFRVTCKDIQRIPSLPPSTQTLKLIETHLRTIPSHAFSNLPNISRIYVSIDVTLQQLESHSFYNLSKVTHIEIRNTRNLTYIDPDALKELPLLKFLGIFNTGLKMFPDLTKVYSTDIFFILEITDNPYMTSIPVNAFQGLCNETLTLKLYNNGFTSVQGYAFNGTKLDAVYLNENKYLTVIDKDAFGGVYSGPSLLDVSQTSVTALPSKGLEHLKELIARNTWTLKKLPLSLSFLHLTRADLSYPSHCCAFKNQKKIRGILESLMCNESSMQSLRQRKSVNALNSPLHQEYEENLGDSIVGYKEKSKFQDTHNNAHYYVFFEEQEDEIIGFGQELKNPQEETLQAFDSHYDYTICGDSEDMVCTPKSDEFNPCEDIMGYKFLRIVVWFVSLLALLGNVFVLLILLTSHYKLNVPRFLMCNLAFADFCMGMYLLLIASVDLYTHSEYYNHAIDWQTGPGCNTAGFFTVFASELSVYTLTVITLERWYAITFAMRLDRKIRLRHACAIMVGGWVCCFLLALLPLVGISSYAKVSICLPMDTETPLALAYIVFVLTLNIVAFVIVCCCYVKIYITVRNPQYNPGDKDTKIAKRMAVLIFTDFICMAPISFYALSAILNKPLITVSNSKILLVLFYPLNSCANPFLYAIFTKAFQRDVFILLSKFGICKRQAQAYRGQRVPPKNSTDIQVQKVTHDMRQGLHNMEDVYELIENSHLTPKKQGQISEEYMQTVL

B1: M22 Fab (Fab fragment of human monoclonal thyroid stimulating autoantibody hMAb TSHR1) (Fab, from another filing, V domains shown)
VH: QVQLVQSGAEVKKPGESLKISCRGSGYRFTSYWINWVRQLPGKGLEWMGRIDPTDSYTNYSPSFKGHVTVSADKSINTAYLQWSSLKASDTGMYYCARLEPGYSSTWSVNWGQGTLVTVSS
VL: LTVLTQPPSVSGAPRQRVTISCSGNSSNIGNNAVNWYQQLPGKAPKLLIYYDDQLPSGVSDRFSGSRSGTSASLAIRGLQSEDEADYYCTSWDDSLDSQLFGGGTRLTVLG
Work on B1 yielded an M22 stimulating activity (cyclic AMP production in TSHR expressing CHO cells) (% of activity with the wild type TSHR) of under 20.
